In the experiment the target is human BTLA (wild-type) on cells (human) (UniProt Q7Z6A9). As to the kind of experiment: cell-based or functional assay.
Sequence of human BTLA (wild-type) on cells (human) (Q7Z6A9 31-289): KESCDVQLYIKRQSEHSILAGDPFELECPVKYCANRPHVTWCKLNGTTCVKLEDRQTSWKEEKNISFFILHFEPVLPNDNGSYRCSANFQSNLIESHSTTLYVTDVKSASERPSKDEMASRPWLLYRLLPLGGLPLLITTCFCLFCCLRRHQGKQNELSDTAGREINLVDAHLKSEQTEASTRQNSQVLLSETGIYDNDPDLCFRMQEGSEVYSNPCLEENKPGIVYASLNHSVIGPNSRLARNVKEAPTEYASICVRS

human CMV UL144-Fc (Fc fusion): the ERK1/2 phosphorylation, control JTAg cells activated with co-immobilized anti-CD3 and Fc protein was 50 to 70 % reduction; the ZAP70/Syk phosphorylation, JTAg cells with ectopic BTLA was in the range of 15 to 25%; the phosphorylation of ERK, Akt and cellular phosphotyrosines, BJAB cells activated with co-immobilized anti-IgM and titrated Fc protein was found to be 50 % reduction.

(Values after patent US20240247047A1.)
